Source: patent publication US20250289897A1, “LEPTIN RECEPTOR AGONISTIC ANTIBODY AS MONO OR COMBO THERAPIES TO TREAT OBESITY” (ELI LILLY AND COMPANY, priority 2024, published 2025)
Marks after values point to notes of the source that are not given here.

Target: T1, mutant LEPR-A409E (Homo sapiens, UniProt P48357, A409E)
T1 construct: expressed in transfected cells; host or cells: HEK293
T1 sequence (P48357 22-1165 A409E): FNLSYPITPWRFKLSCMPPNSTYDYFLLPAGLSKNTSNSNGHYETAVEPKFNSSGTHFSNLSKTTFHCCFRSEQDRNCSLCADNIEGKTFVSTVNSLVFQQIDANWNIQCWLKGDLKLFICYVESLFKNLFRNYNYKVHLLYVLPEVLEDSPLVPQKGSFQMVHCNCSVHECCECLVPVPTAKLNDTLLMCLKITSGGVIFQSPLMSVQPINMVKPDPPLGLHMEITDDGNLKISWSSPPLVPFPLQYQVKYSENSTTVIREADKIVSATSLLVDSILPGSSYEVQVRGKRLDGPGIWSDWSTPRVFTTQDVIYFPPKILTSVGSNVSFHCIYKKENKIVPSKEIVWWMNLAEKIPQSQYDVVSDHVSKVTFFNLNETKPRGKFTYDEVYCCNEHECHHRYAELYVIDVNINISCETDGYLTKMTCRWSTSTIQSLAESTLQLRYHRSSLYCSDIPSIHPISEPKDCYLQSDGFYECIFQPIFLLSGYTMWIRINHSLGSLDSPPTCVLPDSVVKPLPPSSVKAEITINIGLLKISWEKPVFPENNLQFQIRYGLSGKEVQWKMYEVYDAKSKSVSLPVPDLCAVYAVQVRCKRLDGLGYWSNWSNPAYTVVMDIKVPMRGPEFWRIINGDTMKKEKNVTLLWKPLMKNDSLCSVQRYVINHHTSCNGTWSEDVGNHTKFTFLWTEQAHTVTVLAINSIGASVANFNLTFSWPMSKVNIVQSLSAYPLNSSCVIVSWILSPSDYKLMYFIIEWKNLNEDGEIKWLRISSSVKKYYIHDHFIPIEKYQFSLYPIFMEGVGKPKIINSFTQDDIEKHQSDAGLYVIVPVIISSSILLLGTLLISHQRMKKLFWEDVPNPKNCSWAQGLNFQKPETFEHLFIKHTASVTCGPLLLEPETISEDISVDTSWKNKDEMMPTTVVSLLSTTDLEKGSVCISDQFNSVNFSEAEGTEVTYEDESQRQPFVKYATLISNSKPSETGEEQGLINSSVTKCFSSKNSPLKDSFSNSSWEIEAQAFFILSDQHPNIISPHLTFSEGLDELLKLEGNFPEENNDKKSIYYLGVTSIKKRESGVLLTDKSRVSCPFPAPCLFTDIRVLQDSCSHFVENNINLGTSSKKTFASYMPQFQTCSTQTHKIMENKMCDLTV
Assay: STAT3-Luciferase reporter assay in HEK293 cells that express hLEPR-A409E
Assay type: cell-based
Protocol: Missense mutation A409E in LEPR gene was associated with autosomal recessive early onset of obesity in human (Farooqi et al., 2007, N Engl J Med 356 (3): 237-247). […] To test whether the anti-LEPR antibodies can activate these mutant human LEPR receptors, the STAT3-Luciferase reporter assay was established using HEK293 cells that express hLEPR-A409E. These cells were cultured in growth medium DMEM/F12 (Gibco, #12430-054), 10% fetal bovine serum (FBS, Gibco, #10082-147), antibiotics (Gibco, #15240-062), Sodium Pyruvate (Gibco, #11360-070) and GlutaMax supplement (Gibco, #35050-061) in the presence of drug selection 250 μg/mL of Hygromycin (Invitrogen, #10687010) and 800 μg/mL of Geneticin (Corning, #30-234-C1).
Before plating the cells for luciferase assays, the poly-D-Lysine coated 96-well plates (Corning Inc, Bio Coat, #354651, Poly-D-Lysing coated) were rinsed once with phosphate buffered solution (PBS) and once by plating medium. Then, 20,000 to 24,000 STAT3-Luciferase reporter cells were seeded onto the poly-D-lysine 96-well plates in 100 μL/well plating medium consist of DMEM/F12 (3:1, Gibco, #93-0152DK), 10% fetal bovine serum (FBS, Gibco, #10082-147), 1x GlutaMax supplement (Gibco, #35050061) 20 mM HEPES (Gibco, #15630-080) and antibiotics (Gibco, 15240-062). After overnight culture at 37°° C. with 5% CO2, the culture medium was changed to 75 μL assay medium containing OPTI-MEM (Gibco, #31985-070) with 1% BSA (BSA Fraction V (7.5%), Gibco, #15260-037), 0.1% dialyzed fetal bovine serum (FBS, Gibco, #26400-044) for 1 hour at 37° C. with 5% CO2. Test articles were diluted into 25 μL assay medium and were added to each well. Cells were further incubated for 20 hours at 37° C. with 5% CO2. Cell lysing and One-Glo luciferase substrate solution (Promega, #E6120) were then added to each well, and relative luciferase units (RLUs) were measured on a ClarioStar plate reader. The concentration response curves were then plotted as raw RLU readings to the function of log drug concentrations. EC50 was calculated using GraphPad Prism software.

“human leptin: recombinant human leptin protein (SEQ ID NO:27), positive control” was tested, and the “Bottom (RLU)” value (LEPR-A409E STAT3-luciferase) was 451.8 RLU, the “Hill Slope” value (LEPR-A409E STAT3-luciferase) was 0.2011 and the “Top (RLU)” value (LEPR-A409E, top of curve projected by GraphPad Prism software) was 259289* RLU. For the same substance, the “activation of LEPR-A409E” value (STAT3-luciferase) was “did not activate”.
